The values below come from US7097986 (dated 2006).

In the assay the target is T1, VEGFR-1/Ig (human, UniProt P17948).
T1 chain: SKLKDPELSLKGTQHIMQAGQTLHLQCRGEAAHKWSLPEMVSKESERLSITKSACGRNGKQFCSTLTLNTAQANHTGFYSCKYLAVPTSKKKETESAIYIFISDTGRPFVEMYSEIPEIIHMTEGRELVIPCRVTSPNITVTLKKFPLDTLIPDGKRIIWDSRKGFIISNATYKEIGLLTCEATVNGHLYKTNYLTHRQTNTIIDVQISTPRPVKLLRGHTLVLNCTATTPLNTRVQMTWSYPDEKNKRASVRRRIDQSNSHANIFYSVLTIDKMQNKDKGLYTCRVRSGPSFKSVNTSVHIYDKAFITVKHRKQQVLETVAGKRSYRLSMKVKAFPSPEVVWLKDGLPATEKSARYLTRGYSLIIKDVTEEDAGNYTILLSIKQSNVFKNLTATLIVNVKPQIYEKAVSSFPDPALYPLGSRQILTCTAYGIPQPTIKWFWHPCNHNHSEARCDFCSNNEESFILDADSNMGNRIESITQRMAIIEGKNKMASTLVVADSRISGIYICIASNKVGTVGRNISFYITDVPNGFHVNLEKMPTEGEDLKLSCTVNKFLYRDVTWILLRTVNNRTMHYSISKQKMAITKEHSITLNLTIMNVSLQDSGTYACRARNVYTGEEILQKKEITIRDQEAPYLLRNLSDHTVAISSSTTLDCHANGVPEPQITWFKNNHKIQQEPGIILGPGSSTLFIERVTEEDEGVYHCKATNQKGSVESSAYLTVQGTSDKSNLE
The experiment in a line: ELISA. (An ELISA detects its analyte on a solid surface through an enzyme-linked reagent.)

B1: VEGF-DΔNΔC (protein)
chain: FYDIETLKVIDEEWQRTQCSPRETCVEVASELGKSTNTFFKPPCVNVFRCGGCCNEESLICMNTSTSYISKQLFEISVPLTSVPELVPVKVANHTGCKCLPTAPRHPYS
Take B1: the binding result is “no binding”.
